According to patent US20240409645A1 (DUALYX, published 2024):
Numbering of substitutions follows the chain as printed.

T1: human common cytokine receptor γ-chain (IL-2Rγ) (human, UniProt P31785 23-262, limits assumed)
T1 construct: Recombinant human IL-2Rγ protein, coated (ELISA) or amine-coupled to a CM5 chip (SPR); also called hu IL-2R; CD132
T1 sequence: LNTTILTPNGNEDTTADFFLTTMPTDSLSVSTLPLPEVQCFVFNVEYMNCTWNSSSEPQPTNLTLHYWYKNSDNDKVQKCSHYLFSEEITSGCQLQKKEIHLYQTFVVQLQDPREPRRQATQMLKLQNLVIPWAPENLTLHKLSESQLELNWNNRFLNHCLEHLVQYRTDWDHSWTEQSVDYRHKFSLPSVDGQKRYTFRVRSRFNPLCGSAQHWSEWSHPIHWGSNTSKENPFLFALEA

T2: mouse common cytokine receptor γ-chain (IL-2Rγ) (mouse, UniProt P34902 23-263, limits assumed)
T2 construct: Recombinant mouse IL-2Rγ protein; also called mo IL-2R; mouse IL-2R gamma
T2 sequence (looked up): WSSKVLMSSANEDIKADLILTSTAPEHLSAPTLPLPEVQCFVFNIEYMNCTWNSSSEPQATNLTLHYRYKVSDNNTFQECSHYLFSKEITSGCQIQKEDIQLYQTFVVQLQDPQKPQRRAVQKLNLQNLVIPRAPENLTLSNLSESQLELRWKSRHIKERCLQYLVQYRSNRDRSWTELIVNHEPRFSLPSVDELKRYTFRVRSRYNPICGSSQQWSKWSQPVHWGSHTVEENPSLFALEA

B1: FJ1427_P035MP07E08 (VHH)
VHH: QVQLVESGGGLVQAGGSLRLSCAASGRTLSRYAMGWFRQAPGKEREFVAADSWGGDTYYDDSVEGRFTFSRDIAKNAVYLQMNSLQPEDTAVYYCAAAPTSFATTAYSSSNSYAYWGQGTQVTVSS
notes: tested as periplasmic extract; also called Clone nr
B2: FJ1427_P035MP07E06 (VHH)
VHH: B1 VHH with A49T, D51N, D60A, E64Q, I73N, A77T
notes: as for B1
B3: FJ1427_P035MP07G07 (VHH)
VHH: B1 VHH with A49T, D51N, D60A, E64Q, I73N, A77T
notes: as for B1
B4: FJ1427_P035MP07D03 (VHH)
VHH: B1 VHH with A49T, D51N, D60A, E64Q, I73N, A77T
notes: as for B1
B5: FJ1427_P035MP07E03 (VHH)
VHH: B1 VHH with A49T, D51N, D60A, E64Q, I73N, A77T
notes: tested as periplasmic extract; also called Clone nr; 597
B6: FJ1427_P035MP07G03 (VHH)
VHH: B1 VHH with A49T, D51N, D60A, E64Q, I73N, A77T
notes: as for B1
B7: FJ1427_P035MP07G02 (VHH)
VHH: B1 VHH with A49T, D51N, D60A, E64Q, I73N, A77T
notes: as for B1
B8: FJ1427_P035MP07C07 (VHH)
VHH: B1 VHH with A49T, D51N, D60A, E64Q, I73N, A77T
notes: tested as periplasmic extract; also called Clone nr; 627
B9: FJ1427_P035MP07C08 (VHH)
VHH: B1 VHH with A49T, D51N, D60A, E64Q, I73N, A77T
notes: tested as periplasmic extract; also called Clone nr; 635
B10: FJ1427_P035MP07B05 (VHH)
VHH: B1 VHH with A49T, D51N, D60A, E64Q, I73N, A77T
notes: tested as periplasmic extract; also called Clone nr; 610
B11: FJ1427_P035MP07A07 (VHH)
VHH: B1 VHH with A49T, D51N, D60A, E64Q, I73N, A77T
notes: as for B1
B12: FJ1427_P035MP07A08 (VHH)
VHH: B1 VHH with A49T, D51N, D60A, E64Q, I73N, A77T
notes: tested as periplasmic extract; also called Clone nr; 633
B13: FJ1427_P035MP07H01 (VHH)
VHH: B1 VHH with S21F, A24T, K43R, A50C, Y58F, D60A, E64K, I73S, A77T
notes: as for B1
B14: FJ1427_P035MP07F07 (VHH)
VHH: B1 VHH with Q1E, A49T, D51N, D60A, E64Q, I73N, A77T
notes: tested as periplasmic extract; also called Clone nr; 630
B15: FJ1427_P035MP07H04 (VHH)
VHH: B1 VHH with D51M, Y58F, D60A, I73N, K75E, N76I, S126H
notes: as for B1
B16: FJ1427_P035MP07H02 (VHH)
VHH: QVQLVESGGGLVQAGGSLRLSCAASGRALSRLAMGWFRQAPGKEREFVVASSWGDDTFYADSVKGRFTFSRDNAKNTVYLQMNSLQPGDTAVYYCAAAPTSFATTAYSSSNSYAYWGQGTQVTVSS
notes: tested as periplasmic extract; also called Clone nr; 592
B17: FJ1427_P035MP07G05 (VHH)
VHH: B1 VHH with D60A, I73N, K75N
notes: as for B1
B18: FJ1427_P035MP07E09 (VHH)
VHH: B1 VHH with V5Q, A49T, D51N, D60A, E64Q, I73N, A77T
notes: as for B1
B19: FJ1427_P035MP07H10 (VHH)
VHH: B16 VHH with Q1E
notes: tested as periplasmic extract; also called Clone nr; 656
B20: FJ1427_P035MP07H07 (VHH)
VHH: B1 VHH with G16D, D51T, T57S, D60A, I73N, Y115N
notes: as for B1
B21: FJ1427_P035MP07F10 (VHH)
VHH: B1 VHH with V5Q, A50C, Y58F, D60A, I73N, V78T, A97G, A114T, Y115V, S126L
notes: tested as periplasmic extract; also called Clone nr; 654
B22: FJ1427_P035MP07G10 (VHH)
VHH: B1 VHH with F47Y, A50I, Y58F, D60A, I73N, A77E, A97G, A114R
notes: tested as periplasmic extract; also called Clone nr; 655
B23: FJ1427_P035MP07G04 (VHH)
VHH: B1 VHH with Q1E, A49T, D51N, D60A, E64Q, I73N, A77T
notes: as for B1
B24: FJ1427_P035MP07F05 (VHH)
VHH: B1 VHH with Q1E, K43R, A49T, D51N, D60A, E64Q, I73N, A77T
notes: as for B1
B25: FJ1427_P035MP07F04 (VHH)
VHH: B1 VHH with Q1E, A49T, D51N, D60A, E64Q, I73N, A77T
notes: tested as periplasmic extract; also called Clone nr; 606
B26: FJ1427_P035MP07F06 (VHH)
VHH: B16 VHH
notes: as for B1
B27: FJ1427_P035MP07G08 (VHH)
VHH: B1 VHH with K43R, A49T, D51N, D60A, E64Q, I73N, A77T, N83S
notes: as for B1
B28: FJ1427_P035MP07H05 (VHH)
VHH: B1 VHH with D51N, D60T, I73N, E88G, A114S
notes: as for B1
B29: FJ1427_P035MP07B07 (VHH)
VHH: QVQLVESGGGLVQAGGSLRLSCAASGRSLSRYAMGWFRQAPGKEREFVAAISWGGDSFYTDSVEGRFTFSRDNAKNAVYLEMNDLQPEDTAVYYCAAAPTSFPTTAYSSSNSYSYWGRGTQVTVSS
notes: tested as periplasmic extract; also called Clone nr; 626

target: T1, human common cytokine receptor γ-chain …; test: P.E. off-rate SPR
Protocol: (§1) SPR was performed to determine dissociation rates using Biacore 3000 instrument (GE Healthcare). Briefly, human and mouse IL-2R proteins were immobilized on carboxylmethyl dextran sensor chip (CM5) at approximately 2500 RUs using amine coupling in acetate buffer (GE Healthcare). The VHH-containing P.E. were loaded with a flow rate of 30 uL/min and the off-rates were measured over a 120s period.

Row | koff [s⁻¹] | Binder
1 | 0.00229 | B1
2 | 0.00272 | B2
3 | 0.00273 | B3
4 | 0.00339 | B4
5 | 0.00311 | B5
6 | 0.00309 | B6
7 | 0.00365 | B7
8 | 0.0025 | B8
9 | 0.00259 | B9
10 | 0.00282 | B10
11 | 0.00173 | B11
12 | 0.00255 | B12
13 | 0.00125 | B13
14 | 0.003 | B14
15 | 0.00177 | B15
16 | 0.00188 | B16
17 | 0.00257 | B17
18 | 0.0033 | B18
19 | 0.00236 | B19
20 | 0.00418 | B20
21 | 0.00199 | B21
22 | 0.00122 | B22
23 | 0.00281 | B23
24 | 0.00323 | B24
25 | 0.00296 | B25
26 | 0.00162 | B26
27 | 0.003 | B27
28 | 0.00279 | B28
29 | 0.00259 | B29

target: T2, mouse common cytokine receptor γ-chain …; test: P.E. off-rate SPR
Protocol: as §1

Row | koff [s⁻¹] | Binder
30 | 0.13 | B1
31 | 0.102 | B2
32 | 0.106 | B3
33 | 0.107 | B4
34 | 0.0966 | B5
35 | 0.099 | B6
36 | 0.1 | B7
37 | 0.105 | B8
38 | 0.108 | B9
39 | 0.11 | B10
40 | 0.0971 | B11
41 | 0.106 | B12
42 | 0.0274 | B13
43 | 0.133 | B14
44 | 0.0823 | B15
45 | 0.0123 | B16
46 | 0.191 | B17
47 | 0.108 | B18
48 | 0.0137 | B19
49 | 0.00331 | B20
50 | 0.0121 | B21
51 | 0.00682 | B22
52 | 0.112 | B23
53 | 0.116 | B24
54 | 0.115 | B25
55 | 0.0117 | B26
56 | 0.105 | B27
57 | 0.118 | B28
58 | 0.00347 | B29

target: T1, human common cytokine receptor γ-chain …; test: P.E. binding ELISA
Protocol: (§2) In a binding ELISA, human or mouse IL-2Rα, IL-2Rβ and IL-2Rγ proteins were coated directly on maxisorp microtiter plates overnight at 4° C. Free binding sites were blocked using 4% Marvel in PBS for 1 hour. Next, 1:5 dilution of P.E. in 1% Marvel/PBS were added to wells and incubated for 1 hour. […] Binding specificity was determined based on O.D. at 450 nm values compared to negative controls.

Row | PE binding ELISA OD [OD450 nm] | Binder
59 | 0.642 | B1
60 | 0.464 | B2
61 | 0.479 | B3
62 | 1.25 | B4
63 | 0.445 | B5
64 | 0.495 | B6
65 | 1.22 | B7
66 | 0.469 | B8
67 | 0.528 | B9
68 | 0.439 | B10
69 | 1.04 | B11
70 | 0.889 | B12
71 | 0.818 | B13
72 | 0.372 | B14
73 | 0.593 | B15
74 | 0.801 | B16
75 | 0.45 | B17
76 | 0.428 | B18
77 | 0.572 | B19
78 | 1.42 | B20
79 | 0.67 | B21
80 | 0.682 | B22
81 | 1.02 | B23
82 | 0.405 | B24
83 | 0.4 | B25
84 | 1.34 | B26
85 | 0.504 | B27
86 | 1.14 | B28
87 | 0.29 | B29

target: T2, mouse common cytokine receptor γ-chain …; test: P.E. binding ELISA
Protocol: as §2

Row | PE binding ELISA OD [OD450 nm] | Binder
88 | 0.049 | B1
89 | 0.046 | B2
90 | 0.045 | B3
91 | 0.046 | B4
92 | 0.048 | B5
93 | 0.048 | B6
94 | 0.051 | B7
95 | 0.047 | B8
96 | 0.049 | B9
97 | 0.045 | B10
98 | 0.047 | B11
99 | 0.049 | B12
100 | 0.133 | B13
101 | 0.045 | B14
102 | 0.052 | B15
103 | 0.066 | B16
104 | 0.046 | B17
105 | 0.045 | B18
106 | 0.049 | B19
107 | 0.047 | B20
108 | 0.089 | B21
109 | 0.74 | B22
110 | 0.047 | B23
111 | 0.045 | B24
112 | 0.047 | B25
113 | 0.082 | B26
114 | 0.047 | B27
115 | 0.049 | B28
116 | 0.045 | B29
